Source: article PMC6199149

How the values were obtained:
[1] = target: nuclear dUTP nucleotidohydrolase (nuclear isoform of dUTPase), endogenous (human (endogenous in U-2 OS, Saos2, A549, 18Co, HeLa)); test: cross-linking
[2] = target: nuclear dUTP nucleotidohydrolase (nuclear isoform of dUTPase), endogenous (human (endogenous in U-2 OS, Saos2, A549, 18Co, HeLa)); test: non-reducing SDS-PAGE with western blot
[3] = target: recombinant Wt nuclear dUTPase with N-terminal hexahistidine tag, from E. coli (human); conditions: scale: pmol of dUTP per minute per ng of protein

nuclear dUTP nucleotidohydrolase (nuclear isoform of dUTPase), endogenous (enzyme)
stoichiometry N [1]: 2
stoichiometry N [2]: 2

recombinant Wt nuclear dUTPase with N-terminal hexahistidine tag, from E. coli (enzyme)
dUTPase enzymatic assay (37°C, 5 min, no reducing agent) [3]: 7.27
